From patent EP3502685A1

Molecular target: T. spiralis E/S antigen

B1: Anti-[TRISP][C9] (antibody, V domains shown)
VH: AVTLDESGGGLQTPGGALSLVCKASGFSISSYSMQWVRQAPGKGLEWVAGIYYDGNTWYAPAVKGRATISRDNGQSTVRLRLNNLRAEDTATYFCAKYAGGYSIDAWGHGTEVIVSS
VL: ALTQPSSVSANPGETVKITCSGSSGSYGWYQQKSPGSGPVTVIYYNDKRPSDIPSRFSGSASGSTATLTITGVQAEDEAVYFCGGYDSSTYVGIFGAGTTLTVL
B1 showed a detection limit of 6 ng/mL.

B2: Anti-[TRISP][B7] (antibody, V domains shown)
VH: AVTLDESGGGLQTPRGGLSLVCKASGYTFSSHNMAWVRQAPGKGLEFVAGISNTGSFTLYGAAVKGRATISRDNGQSTVRLQLNNLRAEDTGTYYCAKHAGVGLYSIDAWGHGTEVIVSS
VL: ALTQPSSVSANLGGTVKITCSGGTSDYGWYQQKAPGSAPVTLIYDNTNRPSDIPSRFSGSLSGSTNTLTITGVQAEDEAVYFCGSADRTYAGVFGAGTTLTVL
For B2, the detection limit was 6 ng/mL.
